Among the data in patent US20190111106A1 are percent reduction of AC domain binding to FHA values, retold here.

The assay deals with AC domain (catalytic domain) of Bordetella pertussis adenylate cyclase toxin, recombinant (Bordetella pertussis) (UniProt J7QLC0). Nature of the assay: SPR competition: AC domain (10 µM) pre-mixed with CaM and injected over an FHA-coated chip.

On to Calmodulin (from UniProt P0DP23 2-149), for which the percent reduction of AC domain binding to FHA stood at 75%.
